# Source: the nanobody polyreactivity screen of Harvey et al. (2022)
# Test: yeast display, Sf9 membrane polyspecificity reagent, FACS + sequencing; frameworks hold sequencing errors
# Summary of the method: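 In a synthetic yeast display library (Saccharomyces cerevisiae BJ5465), nanobody expression was induced with galactose for 36–48 hours. FACS gates were set low and high (top ~1%) using anti-HA fluorescence for expression and streptavidin fluorescence for binding of the Sf9 membrane reagent. Each polyreactivity label is drawn from the gate of origin.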
row,Sequence,polyreactivity (PSR sort gate)
1,QVQLVESGGGLVQAGGSLRLSCAASGITFSRNGMGWYRQAPGKERELVAAISTSGDSTDYADSVKGRFTISRDNAKNTVYLQMNSLKPEDTAVYYCATEWSYYNYGYDYWGQGTQVTVSS,low polyreactivity
2,QVQLVESGGGLVQAGGSLRLSCAASGITFSRYTMGWYRQAPGKERELVAGISSRGGSTYYADSVKGRFTISRDNAKNTVYLQMNSLKPEDTAVYYCAADGEHYPWYYYWGQGTQVTVSS,high polyreactivity
3,QVQLVESGGGLVQAGGSLRLSCAASGITFSSYVMGWYRQAPGKERELVAAISRSGGITYYADSVKGRFTISRDNAKNTVYIQMNSLKPEDTAVYYCAATFPAGWSYANYYYWGQGTQVTVSS,high polyreactivity
4,QVQLVESGGGLVQAGGSLRLSCAASGITFSTYAMGWYRQAPGKERELVAAINWSGGSTRYADSVKGRFTISRDNAKNTVYLQMNSLKPADTAVYYCAAEVQGQVGEFDYWGQGTQVTVSS,low polyreactivity
5,QVQLVESGGGLVQAGGSLRLSCAASGITFSVNAMGWYRQAPGKEREFVAAISSSGGSTYYADSLKGRFTISRDNAKNTVYLQMNSLKPEDTAVYYCAASGRVQRQHYRPYPYGYWGQGTQVTVSS,high polyreactivity
6,QVQLVESGGGLVQAGGSLRLSCAASGITFSVYAMGWYRQAPGKERELVASISSGGTSTYYADSVKGRFTISRDNAKNNVYLQMNSLKTEDSAVYYCAAYSYYTGDQYSYDYWGQGTQVTVSS,low polyreactivity
7,QVQLVESGGGLVQAGGSLRLSCAASGITFSWNAMGRYRQAPGKERELVASITENTGCTYYADSVKGRFTISRDNAKNTVYLQMNSLKPEDTAVDYCWYTQNTLGNYWGQGTQVTVSS,low polyreactivity
8,QVQLVESGGGLVQAGGSLRLSCAASGITFSYNAMGWYRQAPGKERELVAAITWSGDSTYYADSVKGRFTISRDNAKNTVYLQMNSLKPEDTAVYYCNARYLRLRYPYTDEYNYWGQGTQVTVSS,low polyreactivity
9,QVQLVESGGGLVQAGGSLRLSCAASGITFSYNVMGWYRQAPGKEREFVAAISDGGSTYYADSVKGRFTISRDNAKNTVYLQMNSLKPEDTAVYFCAKGYRYTYSQQVIYDYYYWGQGTQVTVSS,low polyreactivity
10,QVQLVESGGGLVQAGGSLRLSCAASGITFSYYAMGWYRQAPGKEMELVAAISGRDTRTYYADSVKGRFTISRDNAKNTVYLQMNSLKPEDTAVYYCNAVRKHLLKYDYWGQGTQVTVSS,high polyreactivity
11,QVQLVESGGGLVQAGGSLRLSCAASGITFSYYAMGWYRQAPGKERELVAAITGGSTYYADSVKGRFTISRDNAKNTVYLQMNSLKPEDTAVYYCNADSLFEYLDYDYWGQGTQVTVSS,low polyreactivity
12,QVQLVESGGGLVQAGGSLRLSCAASGITFTDNTMGWYRQAPGKERELVAAISRSGTSTYYADSVKGRFTISRDNAKNTVYLQMNSLKPEDTAVYYCAALSYVPSPYYYWGQGTQVTVSS,high polyreactivity
13,QVQLVESGGGLVQAGGSLRLSCAASGITFTEYAMGWYRQAPGKERELVAAITGSGTSTYYADSVKGRFTISRDNAKNTVYLQMNSLKPEDTAVYYCAAERKNKYDYWGQGTQVTVSS,high polyreactivity
14,QVQLVESGGGLVQAGGSLRLSCAASGITFTFNAMGWYRQAPGKERELVAAISSTTSTKYADSVKGRFTISRDNAKNTVYLQMNSLKPEDTAVYYCALTYLLRYYGYRDDEYDYWGQGTQVTVSS,low polyreactivity
15,QVQLVESGGGLVQAGGSLRLSCAASGITFTPNAMGWYRQAPGKEREFVAAITYSGGSTYYADSVKGRFTISRDNAKNTVYLQMNSLKPEDTAVYYCAADSFAWWGSRYDYWGQGTQVTVSS,low polyreactivity
16,QVQLVESGGGLVQAGGSLRLSCAASGITFTQYAMGWYRQAPGKELELVAAITSSGGSTYYADSVKERFTISRDNAKNTVYLQMNSLKPEDTAVYYFIAVRRRQSDYWGQGTQVTVSS,high polyreactivity
17,QVQLVESGGGLVQAGGSLRLSCAASGITFTQYAMGWYRQAPGKERELVASITSSGDNTYYADSVKGRFTISRDNAKNTVYLQMNSLKPEDTAVYYCNARYKWSRRKPWGYWGQGTQVTVSS,high polyreactivity
18,QVQLVESGGGLVQAGGSLRLSCAASGITFTRYGMGWYRQAPGKERELVAVISSSGGRTYYADSVKGRFTISRDNAKNTVYLQMNSLKPEDTAVYYCATVRVLAKYRPKMDYWGQGTQVTVSS,high polyreactivity
19,QVQLVESGGGLVQAGGSLRLSCAASGITFTSYAMGWYRQAPGKERELVAAISSSGVRTYYADSVKGRFTISRDYAKNTVYLQMKSLKPEDTAVYYCATRRRVLYGYDYWGQGTQVTVSS,high polyreactivity
20,QVQLVESGGGLVQAGGSLRLSCAASGITFTSYVMGWYRQAPGKERELVAAIRWSGGRTYYADSVKGRFTISRDNAKNTVYLQINSLKPEDTAVYYCAAYPSYYGDSGLRYDYWGQGTQVTVSS,high polyreactivity
21,QVQLVESGGGLVQAGGSLRLSCAASGITFTSYVMGWYRQAPGKERELVAAIRWSGGRTYYADSVKGRFTITRDNAKNTVYLQMNSLKPEDTAGYYCAAKRKPRPSYRYGYWGQGTQVTVSS,high polyreactivity
22,QVQLVESGGGLVQAGGSLRLSCAASGITFTYYAMGWYRQAPGKERELVAAISYSGGSTYYADSVKGRFTISRDNAKITGYLQMNSLKREDTAVYYCATDARDGHDYWGQGTQVTVSS,high polyreactivity

row,Sequence,polyreactivity (PSR sort gate)
1,QVQLVESGGGLVQAGGSLRLSCAASGITFVFYAMGWYRQAPGKEREFVAGITWRGGRTYYADSVKGRFTISRDNAKNTVYLQMNSLKPEDTAVYYCNARSVVLTGGDYWGQGTQVTVSS,high polyreactivity
2,QVQLVESGGGLVQAGGSLRLSCAASGITFVFYAMGWYRQAPGKERELVAAISWSGGITYYADSVKGRFTISRDNAKNTVYLQMNSLKPEDTAFYYCAATKRQTKYYGGTTDSIMYYWGQGTQVTVSS,low polyreactivity
3,QVQLVESGGGLVQAGGSLRLSCAASGITFVGNAMGGYRQATGKERELVAVIRGNGGSTYYADSVKGRFTISRDNAKNTVYLQMNSLKPEDTAVYYCAAAAYYADFDYLGQGTQVTVSS,low polyreactivity
4,QVQLVESGGGLVQAGGSLRLSCAASGITFVINGMGWYRQAPGKESELLAAISKSGRTYYADSVKGRFTISRDNAKNTVFIQMNSLTPEDSAVYYCNNVPYPSNDYWGQGTQVTVSS,high polyreactivity
5,QVQLVESGGGLVQAGGSLRLSCAASGITFVIYAMGWYRQAPGKEREFVAGINWSTGSTYYADTVKGRFTISRDYAKNTVYLQMNSLKPEDTAVYYFNVDAIINAIGAYWYDFDYWGQGTQVTVSS,low polyreactivity
6,QVQLVESGGGLVQAGGSLRLSCAASGITFVKNAMGWYRQAPGKERELVARIRIGGSTSYADSVKGRFTFSRDNAKNTVYLQMNSLKPEDTAVYYCARYAGRLSYRYEYWGQGTQVTVSS,high polyreactivity
7,QVQLVESGGGLVQAGGSLRLSCAASGITFVKNAMGWYRQAPGKERELVARIRIGGSTSYADSVKGRFTISRDNAKNTVYLQRNSLKPEDNAVYYCARYAGRLSYRYEYWGQGTQVTVSS,high polyreactivity
8,QVQLVESGGGLVQAGGSLRLSCAASGITFVKYAMGWYRQAPGKERELVAAISGSGGSTSYADSVKGRFTISRDNAKNTVYLQMNSLKPEDTAVYYCNKAIVRYPKTRDYWGQGTQVTVSS,low polyreactivity
9,QVQLVESGGGLVQAGGSLRLSCAASGITFVPNAMGWYRQAPGKERELVARIDNGVSTNYADSVKGRFTISRDNAKNTVYLQMNSLKPEDTAVYYCAKDGYWGDWDLYYWGQGTQVTVSS,low polyreactivity
10,QVQLVESGGGLVQAGGSLRLSCAASGITFVPYAMGWSRQAPGKERELVAAITWRGGSTYYADSVKGRFTISRDNAKNTVYLQMNSLKPEDTAVYYCAVKFRSSQYQLQYGSLGQGTQVTVSS,high polyreactivity
11,QVQLVESGGGLVQAGGSLRLSCAASGITFVPYAMGWYRQAPGKEREFVARITWSGGGTYYADSVKGRFTISRDNAKNTVYLQMNSLKPEDTAVYYSNKASLPTYYYVDGSDSWGQGTQVTVSS,low polyreactivity
12,QVQLVESGGGLVQAGGSLRLSCAASGITFVRYAMGGYRQAPGKESELVAGISRGGSTNYADSVKGRFTISRDNAKNTVYLQMNSLKPEDSAVYYCNALYARRVYVGYDYWGQGTQVTVSS,high polyreactivity
13,QVQLVESGGGLVQAGGSLRLSCAASGITFVRYAMGWYRQAPGKERELVAAISSGGSTHYADSVKGRFTISRDNAKNTVYLQMYSLKPEDTAVYYCAAQWTESSLYRFGYLGQGTQVTVSS,high polyreactivity
14,QVQLVESGGGLVQAGGSLRLSCAASGITFVRYAMGWYRQAPGKERELVATINWSGGSTYYADSVKGRFTISRDNAKNTVYLQMNSLKPEDTAVYYCAAYYVHPVYDVGHYDYWGQGTQVTVSS,low polyreactivity
15,QVQLVESGGGLVQAGGSLRLSCAASGITFVRYAMGWYRQATGKERELVAGISRGGSTNYADSVKGRFTISRDNAKNTVYLQMNSLKPEDTAVYYCNRVFTWRYGYRYEYWGQGTQVTVSS,high polyreactivity
16,QVQLVESGGGLVQAGGSLRLSCAASGITFVWNAMGWYIKEPGKERELVATISRGGVRTYYADSVKGRFTISRDNAKNTVYLQMNSLKPEDTAVYYCNAYFEYYDYWGQGTQVSVSS,low polyreactivity
17,QVQLVESGGGLVQAGGSLRLSCAASGITFVYNDMGSYRQAPGKESELVAAISWRGGSTYYADSVKGRFTISRDNAKNTVYLQMNSLKPEDTAVYYCNKLPTYPEYGYDSWGQGTQVTVSS,high polyreactivity
18,QVQLVESGGGLVQAGGSLRLSCAASGITFVYYDMGWYRQAPGKERELLAAISSGGSTYYADSVKGRFTISRDNAKNTVYLQMNSLKPEDTAVYYCAAKISSNYHIGGDDYWGQGTQVSVSS,high polyreactivity
19,QVQLVESGGGLVQAGGSLRLSCAASGITFVYYDMGWYRQAPGKERELVAAISSGGSTYYADSVKGRFTISRDNAKNNVYLQMNRLKPEDTAVYYCAAKISSNYHIGGDDYWGQGTQVTVSS,high polyreactivity
20,QVQLVESGGGLVQAGGSLRLSCAASGITFVYYTMGWYRQAPGKERELVASITWDGRSTYYADSVKGRFTISRDNAKNTVYLQMNSLKPEDTAVYYCNRDRVSGGKYNYWGQGTQVTVSS,low polyreactivity
21,QVQLVESGGGLVQAGGSLRLSCAASGITFWFNAMGWYRQAPGQERELVAAITSGVDTNYADSVKGRFTISRDNAKNTVYLQMNSLIPEDTAVYYCAAQGGRLKRGRTTSDYWGQGTQVTVSS,low polyreactivity
